Measured values from patent EP4086284A1 (Emergence Therapeutics AG, dated 2022).

Target: T1, Nectin-4 extracellular domain Fc fusion recombinant protein (Nec4-VCC) (human, UniProt Q96NY8 32-349)
T1 construct: extracellular domain; also called Nectin-4-VCC-Fc; not shown: Fc part
T1 sequence (looked up): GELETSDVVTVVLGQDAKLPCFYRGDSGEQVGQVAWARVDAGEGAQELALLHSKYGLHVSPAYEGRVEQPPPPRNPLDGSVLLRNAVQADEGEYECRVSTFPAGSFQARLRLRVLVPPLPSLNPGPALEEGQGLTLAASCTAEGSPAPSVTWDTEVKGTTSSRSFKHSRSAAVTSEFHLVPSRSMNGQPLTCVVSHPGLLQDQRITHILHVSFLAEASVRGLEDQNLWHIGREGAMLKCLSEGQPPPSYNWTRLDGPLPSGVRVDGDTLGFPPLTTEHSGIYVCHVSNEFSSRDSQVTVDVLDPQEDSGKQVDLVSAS
Test: statement in the legend of the competition ELISA on Nec4-VCC

B1: Enfortumab (HA22) (antibody, V domains shown)
VH: EVQLVESGGGLVQPGGSLRLSCAASGFTFSSYNMNWVRQAPGKGLEWVSYISSSSSTIYYADSVKGRFTISRDNAKNSLSLQMNSLRDEDTAVYYCARAYYYGMDVWGQGTTVTVSS
VL: DIQMTQSPSSVSASVGDRVTITCRASQGISGWLAWYQQKPGKAPKFLIYAASTLQSGVPSRFSGSGSGTDFTLTISSLQPEDFATYYCQQANSFPPTFGGGTKVEIK
notes: also called HA22 mAb
binding result: binds
